Measurements published in article PMC12378399 (Metallomics : integrated biometal science, 2025).
Where two headings read alike, the source gives them in different places. Each block holds one molecule with its values, some of them ahead of it.

Assays:
SufS (with SufE) = SufS (with SufE) (Escherichia coli, UniProt P77444); conditions: 50 mM MOPS pH 8.0, 150 mM NaCl, 2 mM TCEP, 500 μM L-cysteine, SufE 0.25-3 μM varied (not cysteine)
[1] = target: BODIPY-labeled SufE C51A/E107C (SufEDM) (E. coli) (UniProt P76194); experiment: fluorescence polarisation
SufS (Escherichia coli) [2] = target: SufS (Escherichia coli) (UniProt P77444); conditions: cited from earlier work
Sequence of SufS (Escherichia coli) (P77444 whole entry): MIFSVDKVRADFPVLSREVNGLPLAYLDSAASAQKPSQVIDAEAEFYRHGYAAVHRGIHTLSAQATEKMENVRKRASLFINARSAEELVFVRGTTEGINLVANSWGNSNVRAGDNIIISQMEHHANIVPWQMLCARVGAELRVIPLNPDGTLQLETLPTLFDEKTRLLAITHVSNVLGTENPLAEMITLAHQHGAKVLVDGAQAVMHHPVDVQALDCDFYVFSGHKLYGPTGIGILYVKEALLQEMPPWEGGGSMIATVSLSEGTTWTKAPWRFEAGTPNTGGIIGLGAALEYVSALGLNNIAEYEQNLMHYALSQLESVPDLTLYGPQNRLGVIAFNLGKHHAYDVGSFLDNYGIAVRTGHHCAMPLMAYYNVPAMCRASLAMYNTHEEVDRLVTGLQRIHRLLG

SufS (Escherichia coli) [3] = target: SufS (Escherichia coli) (UniProt P77444); conditions: cited from earlier work; remark: listed apart in the source
[4] = target: SufBC2D (Escherichia coli) (UniProt P77522); experiment: surface plasmon resonance; conditions: cited from earlier work
Sequence of SufBC2D (Escherichia coli) (P77522 whole entry, chain 1 of 3): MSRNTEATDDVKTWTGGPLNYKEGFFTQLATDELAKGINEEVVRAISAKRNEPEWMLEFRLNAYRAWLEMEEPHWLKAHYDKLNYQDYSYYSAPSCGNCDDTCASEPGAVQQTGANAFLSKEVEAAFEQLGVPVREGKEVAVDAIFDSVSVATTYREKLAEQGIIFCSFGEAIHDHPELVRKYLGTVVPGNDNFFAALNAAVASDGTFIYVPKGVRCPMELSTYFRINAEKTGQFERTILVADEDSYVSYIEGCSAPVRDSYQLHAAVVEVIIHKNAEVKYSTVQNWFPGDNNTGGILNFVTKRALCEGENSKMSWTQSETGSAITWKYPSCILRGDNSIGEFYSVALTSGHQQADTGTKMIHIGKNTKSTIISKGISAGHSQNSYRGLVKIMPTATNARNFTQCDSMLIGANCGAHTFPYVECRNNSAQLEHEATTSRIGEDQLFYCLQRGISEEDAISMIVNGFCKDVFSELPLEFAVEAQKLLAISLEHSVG
Sequence of SufBC2D (Escherichia coli) (P77499 whole entry, chain 2 of 3, further chain): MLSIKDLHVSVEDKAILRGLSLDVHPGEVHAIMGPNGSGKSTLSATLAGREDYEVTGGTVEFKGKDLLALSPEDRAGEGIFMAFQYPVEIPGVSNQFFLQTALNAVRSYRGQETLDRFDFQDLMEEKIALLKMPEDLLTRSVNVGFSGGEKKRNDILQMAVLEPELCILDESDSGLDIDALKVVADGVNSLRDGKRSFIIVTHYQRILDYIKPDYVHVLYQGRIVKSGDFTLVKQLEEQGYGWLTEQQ
Sequence of SufBC2D (Escherichia coli) (P77689 whole entry, chain 3 of 3, further chain): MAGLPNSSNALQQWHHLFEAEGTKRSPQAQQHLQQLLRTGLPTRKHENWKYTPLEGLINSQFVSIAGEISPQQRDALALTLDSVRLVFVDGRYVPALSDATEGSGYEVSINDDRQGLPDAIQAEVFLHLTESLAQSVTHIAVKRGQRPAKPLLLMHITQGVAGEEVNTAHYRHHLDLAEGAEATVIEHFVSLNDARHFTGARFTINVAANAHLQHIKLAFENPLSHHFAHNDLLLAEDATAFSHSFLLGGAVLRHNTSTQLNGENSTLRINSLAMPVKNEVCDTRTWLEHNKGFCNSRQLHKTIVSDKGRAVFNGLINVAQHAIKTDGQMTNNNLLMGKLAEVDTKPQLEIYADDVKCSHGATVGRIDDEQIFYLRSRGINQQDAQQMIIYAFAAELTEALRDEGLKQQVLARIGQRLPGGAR

[5] = target: SufBC2D scaffold complex (His6-SufBCD) (E. coli) (UniProt P77522); experiment: steady-state enzyme inhibition
Sequence of SufBC2D scaffold complex (His6-SufBCD) (E. coli) (P77522 whole entry, chain 1 of 3): as the sequence (P77522 whole entry, chain 1 of 3) above
Sequence of SufBC2D scaffold complex (His6-SufBCD) (E. coli) (P77499 whole entry, chain 2 of 3, further chain): as the sequence (P77499 whole entry, chain 2 of 3, further chain) above
Sequence of SufBC2D scaffold complex (His6-SufBCD) (E. coli) (P77689 whole entry, chain 3 of 3, further chain): as the sequence (P77689 whole entry, chain 3 of 3, further chain) above

[6] = target: SufBC2D scaffold complex (His6-SufBCD) (E. coli) (UniProt P77522)

Sequence of SufS (with SufE) (P77444 whole entry, one chain of several): as the sequence (P77444 whole entry) above

Molecule: N[C@@H](CS)C(=O)O [L-cysteine]
NDA-alanine fluorescence detection of L-alanine produced (SufS (with SufE)): Cysteine desulfurase activity of SufS was measured by quantifying the amount of L-alanine produced

Kd [1]: 1600 nM
Molecule: SufBC2D scaffold complex (His6-SufBCD) (from UniProt P77522 1-495; P77499 1-248; P77689 1-423)

Molecule: SufE (from UniProt P76194)
Kd (SufS (Escherichia coli) [2]): 500 nM
Kd (SufS (Escherichia coli) [3]): 5000 nM
Kd [4]: 2800 nM

Ki [5]: 1800 nM
IC50 of inhibition of SufBC2D ATPase activity in the presence of 500 μM Mg2+-ATP [6]: 1000 nM
B1: SufE (wildtype) (natural protein)
chain: MALLPDKEKLLRNFLRCANWEEKYLYIIELGQRLPELRDEDRSPQNSIQGCQSQVWIVMRQNAQGIIELQGDSDAAIVKGLIAVVFILYDQMTPQDIVNFDVRPWFEKMALTQHLTPSRSQGLEAMIRAIRAKAAALS

Ki [5]: 2500 nM
B2: Carbamidomethylated SufE (SufE-alk) (natural protein)
chain: B1 chain
modifications: C51 alkylated (carbamidomethylated with iodoacetamide)
